Test results as given in the supplement of paper PMC7877785.
± gives the uncertainty stated by the source.

Assay: self-splicing fitness, log relative to wild type (ln ratio); higher = more splicing; Tetrahymena group I intron in knt gene, E. coli kanamycin selection, DiMSum; sequences stand for … in CUCUCU…GGAGGGAAAAGUUAUCAGGCAUGCACCUGGUAGCUAGUCUUUAAACCAAUAGAUUGCAUCGGUUUAAAAGGCAAGACCGUCAAAUUGCGGGAAAGGGGUCAACAGCCGUUCAGUACCAAGUCUCAGGGGAAACUUUGAGAUGGCCUUGCAAAGGGUAUGGUAAUAAGCUGACGGACAUGGUCCUAACCACGCAGCCAAGUCCUAAGUCAACAGAUCUUCUGUUGAUAUGGAUGCAGUUCACAGACUAAAUGUCGGUCGGGGAAGAUGUAUUCUUCUCAUAAGAUAUAGUCGGACCUCUCCUUAAUGGGAGCUAGCGGAUGAAGUGAUGCAACACUGGAGCCGCUGGGAACUAAUUUGUAUGCGAAAGUAUAUUGAUUAGUUUUGGAGUACUCGUGGUCG
In short: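 Fitness was computed with DiMSum as the error-weighted combination of replicate fold changes, kanamycin versus none, each normalised to wild type. The library randomised all eight intron nucleotides of the P1ex region, with the intron placed in the knt kanamycin-resistance gene on pET-22b(+) in E. coli BL21(DE3). Six replicate transformations were grown overnight at 37°C or 30°C on LB agar with or without 25 μg/mL kanamycin, plus 100 μg/mL carbenicillin, 50 μM IPTG and 0.2% rhamnose. Pooled colonies were amplicon-sequenced on an Illumina HiSeq 2500.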

Row | Sequence | self-splicing fitness (ln) (30 °C) | self-splicing fitness (ln) (37 °C)
1 | CCAAAGCAAUAUUACGACUG | -0.588 ± 0.071 | -0.0799 ± 0.091
2 | AGCUAGCAAUAUUACGCAUU | -3 ± 0.19 | -1.48 ± 0.14
3 | AUCCAGCAAUAUUACGCUGA | -1.36 ± 0.097 | -1.22 ± 0.13
4 | GGCUAGCAAUAUUACGAAAG | -2.44 ± 0.26 | -2.4 ± 0.44
5 | CUUAAGCAAUAUUACGUAGA | -3.6 ± 0.22 | -2.82 ± 0.34
6 | UCAAAGCAAUAUUACGAGCC | -2.27 ± 0.23 | 
7 | ACGGAGCAAUAUUACGCGUC |  | -1.92 ± 0.33
8 | AUCUAGCAAUAUUACGCUGA | -1.71 ± 0.18 | -0.501 ± 0.13
9 | UAGGAGCAAUAUUACGGCUA | -0.122 ± 0.11 | 0.147 ± 0.11
10 | CGGCAGCAAUAUUACGCGUC | -4.09 ± 0.25 | -2.4 ± 0.18
11 | UUAUAGCAAUAUUACGUUCA | -0.931 ± 0.15 | 0.00672 ± 0.15
12 | UGUGAGCAAUAUUACGACCU | -0.867 ± 0.17 | 0.0453 ± 0.26
13 | GUGAAGCAAUAUUACGCGUU | -3.59 ± 0.2 | -2.02 ± 0.21
14 | ACAAAGCAAUAUUACGUAGA | -3.68 ± 0.16 | -1.66 ± 0.15
15 | CUACAGCAAUAUUACGCGGU | -3.49 ± 0.3 | -2.17 ± 0.28
16 | GCGGAGCAAUAUUACGUCCU | -1.31 ± 0.25 | -0.651 ± 0.41
17 | ACCCAGCAAUAUUACGACUG | -2.87 ± 0.23 | -2.72 ± 0.41
18 | GGCGAGCAAUAUUACGUAUG | -1.78 ± 0.14 | -1.01 ± 0.14
19 | AGUGAGCAAUAUUACGCACG | -1.58 ± 0.18 | -0.941 ± 0.17

Row | Sequence | self-splicing fitness (ln) (30 °C) | self-splicing fitness (ln) (37 °C)
20 | ACGAAGCAAUAUUACGCAAG | -1.02 ± 0.14 | -0.171 ± 0.18
21 | AGACAGCAAUAUUACGGGCG | -0.665 ± 0.1 | -0.459 ± 0.12
22 | CGCAAGCAAUAUUACGCCUU | -2.63 ± 0.17 | -2.62 ± 0.26
23 | GCUAAGCAAUAUUACGUACA | -1.38 ± 0.1 | -0.974 ± 0.13
24 | CUGUAGCAAUAUUACGCUUA | -3.24 ± 0.37 | -3.24 ± 0.43
25 | UCUGAGCAAUAUUACGCUGU | -2 ± 0.23 | -1.07 ± 0.19
26 | UGGUAGCAAUAUUACGAUCA | -0.00935 ± 0.1 | 0.325 ± 0.13
27 | CCUCAGCAAUAUUACGGGGG | -4.13 ± 0.28 | -2.9 ± 0.23
28 | UUGGAGCAAUAUUACGGCUA | -1.23 ± 0.26 | -1.21 ± 0.41
29 | UCCUAGCAAUAUUACGAUGA | 0.139 ± 0.083 | 0.437 ± 0.098
30 | UUCAAGCAAUAUUACGAGAA | -1.84 ± 0.3 | -1.61 ± 0.37
31 | UUUGAGCAAUAUUACGGCGG | -1.04 ± 0.24 | -1.57 ± 0.28
32 | AUCCAGCAAUAUUACGCGCA | -0.994 ± 0.067 | -0.169 ± 0.081
33 | AAGCAGCAAUAUUACGAGCU | -1.2 ± 0.079 | -0.815 ± 0.083
34 | CUCUAGCAAUAUUACGAUUU | -3.27 ± 0.19 | -3.01 ± 0.3
35 | GUUAAGCAAUAUUACGUAUG | -2.44 ± 0.12 | -1.36 ± 0.13
36 | AUUGAGCAAUAUUACGAAUU | -2.85 ± 0.23 | -1.71 ± 0.24
37 | UAGCAGCAAUAUUACGCCAC | -3.82 ± 0.39 | -1.45 ± 0.3
38 | UAAUAGCAAUAUUACGUAGC | -2.63 ± 0.35 | -2.19 ± 0.26
